Laboratory results as given in patent US20110118447A1.
Changes are numbered by the printed parent chain. In names and notes the source's numbering stands. One block for each binder: values may come before it.

Key:
[1] = target: binding partner of C5A (XPA23); assay: Biacore
[2] = target: binding partner of C5A (XPA23); assay: Biacore, K-off

B2: C5A (XPA23) VH G100Y (antibody, V domains shown)
VH: EVQLLESGGGLVQPGGSLRLSCAASGFTFSKYFMFWVRQAPGKGLEWVSVISPSGGMTRYADSVKGRFTISRDNSKNTLYLQMNSLRAEDTAVYYCARVYYGGNSDYWGQGTLVTVSS
VL: DIQMTQSPSSVSASVGDRLTIICRASQDINRWLAWYQQTPGNAPKLLIHSATSLQSGVPSRFSGSGSGTDFTLTINSLQPEDFATYYCQQADSFPLTFGGGTKVEIK
fold affinity vs original [1]: 0.09 fold
fold difference in affinity vs original [2]: 0.09 fold

B4: C5A (XPA23) VH M57K (antibody, V domains shown)
VH: B2 VH with M57K, Y100G
VL: B2 VL
fold affinity vs original [1]: 0.04 fold
fold difference in affinity vs original [2]: 0.04 fold

B5: C5A (XPA23) VH R59Q (antibody, V domains shown)
VH: B2 VH with R59Q, Y100G
VL: B2 VL
fold affinity vs original [1]: 0.86 fold
fold difference in affinity vs original [2]: 0.86 fold

B7: C5A (XPA23) VH G56Y (antibody, V domains shown)
VH: B2 VH with G56Y, Y100G
VL: B2 VL
fold affinity vs original [1]: 1.27 fold
fold difference in affinity vs original [2]: 1.27 fold

B9: C5A (XPA23) VH Y101E (antibody, V domains shown)
VH: B2 VH with Y100G, Y101E
VL: B2 VL
fold affinity vs original [1]: 0.03 fold
fold difference in affinity vs original [2]: 0.03 fold

B10: C5A (XPA23) VH G100H (antibody, V domains shown)
VH: B2 VH with Y100H
VL: B2 VL
fold affinity vs original [1]: 0.06 fold
fold difference in affinity vs original [2]: 0.06 fold

B12: C5A (XPA23) VH T58Y (antibody, V domains shown)
VH: B2 VH with T58Y, Y100G
VL: B2 VL
fold affinity vs original [1]: 1.01 fold
fold difference in affinity vs original [2]: 1.01 fold

B13: C5A (XPA23) VH R59K (antibody, V domains shown)
VH: B2 VH with R59K, Y100G
VL: B2 VL
fold affinity vs original [1]: 0.94 fold
fold difference in affinity vs original [2]: 0.94 fold

B14: C5A (XPA23) VH G56T (antibody, V domains shown)
VH: B2 VH with G56T, Y100G
VL: B2 VL
fold difference in affinity vs original [1]: 1.11 fold
fold difference in affinity vs original [2]: 1.11 fold

B15: C5A (XPA23) VH T58R (antibody, V domains shown)
VH: B2 VH with T58R, Y100G
VL: B2 VL
fold affinity vs original [1]: 1.14 fold
fold difference in affinity vs original [2]: 1.14 fold

B18: C5A (XPA23) VH R59S (antibody, V domains shown)
VH: B2 VH with R59S, Y100G
VL: B2 VL
fold affinity vs original [1]: 0.13 fold
fold difference in affinity vs original [2]: 0.13 fold

B24: C5A (XPA23) VH T58D (antibody, V domains shown)
VH: B2 VH with T58D, Y100G
VL: B2 VL
fold affinity vs original [1]: 0.12 fold
fold difference in affinity vs original [2]: 0.12 fold

B25: C5A (XPA23) VH M57H (antibody, V domains shown)
VH: B2 VH with M57H, Y100G
VL: B2 VL
fold affinity vs original [1]: 0.08 fold
fold difference in affinity vs original [2]: 0.08 fold

B31: C5A (XPA23) VH T58H (antibody, V domains shown)
VH: B2 VH with T58H, Y100G
VL: B2 VL
fold affinity vs original [1]: 0.98 fold
fold difference in affinity vs original [2]: 0.98 fold

B33: C5A (XPA23) VH M57S (antibody, V domains shown)
VH: B2 VH with M57S, Y100G
VL: B2 VL
fold affinity vs original [1]: 0.04 fold
fold difference in affinity vs original [2]: 0.04 fold

B36: C5A (XPA23) VH V99T (antibody, V domains shown)
VH: B2 VH with V99T, Y100G
VL: B2 VL
fold difference in affinity vs original [1]: 0.1 fold
fold difference in affinity vs original [2]: 0.1 fold

B37: C5A (XPA23) VH G56H (antibody, V domains shown)
VH: B2 VH with G56H, Y100G
VL: B2 VL
fold affinity vs original [1]: 0.82 fold
fold difference in affinity vs original [2]: 0.82 fold

B38: C5A (XPA23) VH G100T (antibody, V domains shown)
VH: B2 VH with Y100T
VL: B2 VL
fold difference in affinity vs original [1]: 0.12 fold
fold difference in affinity vs original [2]: 0.12 fold

The remaining lines, values ahead:

fold affinity vs original [1]: 1.02 fold
fold difference in affinity vs original [2]: 1.02 fold
B1: C5A (XPA23) VH G55S (antibody, V domains shown)
VH: B2 VH with G55S, Y100G
VL: B2 VL

fold affinity vs original [1]: 0.86 fold
fold difference in affinity vs original [2]: 0.86 fold
B3: C5A (XPA23) VH M57Y (antibody, V domains shown)
VH: B2 VH with M57Y, Y100G
VL: B2 VL

fold affinity vs original [1]: 0.08 fold
fold difference in affinity vs original [2]: 0.08 fold
B6: C5A (XPA23) VH G55Y (antibody, V domains shown)
VH: B2 VH with G55Y, Y100G
VL: B2 VL

fold affinity vs original [1]: 0.82 fold
fold difference in affinity vs original [2]: 0.82 fold
B8: C5A (XPA23) VH T58S (antibody, V domains shown)
VH: B2 VH with T58S, Y100G
VL: B2 VL

fold affinity vs original [1]: 0.03 fold
fold difference in affinity vs original [2]: 0.03 fold
B11: C5A (XPA23) VH M57N (antibody, V domains shown)
VH: B2 VH with M57N, Y100G
VL: B2 VL

fold affinity vs original [1]: 2.8 fold
fold difference in affinity vs original [2]: 2.8 fold
B16: C5A (XPA23) VH G100S (antibody, V domains shown)
VH: B2 VH with Y100S
VL: B2 VL

fold affinity vs original [1]: 0.86 fold
fold difference in affinity vs original [2]: 0.86 fold
B17: C5A (XPA23) VH R59N (antibody, V domains shown)
VH: B2 VH with R59N, Y100G
VL: B2 VL

fold affinity vs original [1]: 0.04 fold
fold difference in affinity vs original [2]: 0.04 fold
B19: C5A (XPA23) VH Y101H (antibody, V domains shown)
VH: B2 VH with Y100G, Y101H
VL: B2 VL

fold affinity vs original [1]: 1.31 fold
fold difference in affinity vs original [2]: 1.31 fold
B20: C5A (XPA23) VH G56Q (antibody, V domains shown)
VH: B2 VH with G56Q, Y100G
VL: B2 VL

fold affinity vs original [1]: 0.1 fold
fold difference in affinity vs original [2]: 0.1 fold
B21: C5A (XPA23) VH G55N (antibody, V domains shown)
VH: B2 VH with G55N, Y100G
VL: B2 VL

fold affinity vs original [1]: 0.05 fold
fold difference in affinity vs original [2]: 0.05 fold
B22: C5A (XPA23) VH G56D (antibody, V domains shown)
VH: B2 VH with G56D, Y100G
VL: B2 VL

fold affinity vs original [1]: 1.21 fold
fold difference in affinity vs original [2]: 1.21 fold
B23: C5A (XPA23) VH G56E (antibody, V domains shown)
VH: B2 VH with G56E, Y100G
VL: B2 VL

fold affinity vs original [1]: 1.06 fold
fold difference in affinity vs original [2]: 1.06 fold
B26: C5A (XPA23) VH G56N (antibody, V domains shown)
VH: B2 VH with G56N, Y100G
VL: B2 VL

fold affinity vs original [1]: 0.06 fold
fold difference in affinity vs original [2]: 0.06 fold
B27: C5A (XPA23) VH M57R (antibody, V domains shown)
VH: B2 VH with M57R, Y100G
VL: B2 VL

fold affinity vs original [1]: 2.11 fold
fold difference in affinity vs original [2]: 2.11 fold
B28: C5A (XPA23) VH G56R (antibody, V domains shown)
VH: B2 VH with G56R, Y100G
VL: B2 VL

fold affinity vs original [1]: 0.02 fold
fold difference in affinity vs original [2]: 0.02 fold
B29: C5A (XPA23) VH M57Q (antibody, V domains shown)
VH: B2 VH with M57Q, Y100G
VL: B2 VL

fold affinity vs original [1]: 0.9 fold
fold difference in affinity vs original [2]: 0.9 fold
B30: C5A (XPA23) VH G55Q (antibody, V domains shown)
VH: B2 VH with G55Q, Y100G
VL: B2 VL

fold difference in affinity vs original [1]: 0.76 fold
fold difference in affinity vs original [2]: 0.76 fold
B32: C5A (XPA23) VH R59T (antibody, V domains shown)
VH: B2 VH with R59T, Y100G
VL: B2 VL

fold affinity vs original [1]: 2.05 fold
fold difference in affinity vs original [2]: 2.05 fold
B34: C5A (XPA23) VH G56K (antibody, V domains shown)
VH: B2 VH with G56K, Y100G
VL: B2 VL

fold difference in affinity vs original [1]: 0.06 fold
fold difference in affinity vs original [2]: 0.06 fold
B35: C5A (XPA23) VH M57T (antibody, V domains shown)
VH: B2 VH with M57T, Y100G
VL: B2 VL

fold affinity vs original [1]: 0.9 fold
fold difference in affinity vs original [2]: 0.9 fold
B39: C5A (XPA23) VH T58N (antibody, V domains shown)
VH: B2 VH with T58N, Y100G
VL: B2 VL
